{
  "source": "the RNAGym collection of RNA variant scans (doi:10.1073/pnas.2313332121)",
  "parents": {"B1": {"name": "TPR 5TU (parent)", "chain": "GGAUCUUCUCGAUCUAACAAAAAAGACAAAUCUGCCACAAAGCUUGAGAGCAUCUUCGGAUGCAGAGGCGGCAGCCUUCGGUGGCGCGAUAGCGCCAACGUUCUCAACUAUGACACGCAAAACGCGUGCUCCGUUGAAUGGAGUUUAUCAUG"}},
  "note": "Fewer inactive variants are shown than the library holds.",
  "data": [
    {"variants_of": "B1", "test": "polymerase ribozyme fitness, log enrichment relative to wild type (log ratio); higher = more active; in vitro selection for triplet polymerase activity", "how_it_was_run": "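In triplicate, a single round of in vitro selection was run on each mutant library, PCR-built and transcribed, covering one subunit of a heterodimeric triplet polymerase ribozyme. Frozen incubation at −7 °C followed annealing with a biotinylated primer, partner subunit and triplets, and extended constructs were then gel-excised, streptavidin-captured and taken through RT-PCR. Fitness is the logarithm of genotype enrichment over wild-type enrichment, from inverse-variance-weighted replicate averages of Illumina-sequenced inputs and outputs. […] only genotypes with ≥10 input reads and ≥1 read per output were kept.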", "values": [
      {"variant": "A17U C105A", "polymerase ribozyme fitness (log ratio)": -1.28},
      {"variant": "C18G C63G G68U G71A U78G C85G G100A G141U", "polymerase ribozyme fitness (log ratio)": "≤ -4.2"},
      {"variant": "C18A A89G U90G A97G", "polymerase ribozyme fitness (log ratio)": "≤ -4.2"},
      {"variant": "C18G A52C C69G C75G G94A C95U A113U", "polymerase ribozyme fitness (log ratio)": "≤ -4.2"},
      {"variant": "A19C G88A C95A C99U", "polymerase ribozyme fitness (log ratio)": "≤ -4.2"},
      {"variant": "A17U C93U C114A C116G", "polymerase ribozyme fitness (log ratio)": "≤ -4.2"},
      {"variant": "C18G G50A C96G A121C", "polymerase ribozyme fitness (log ratio)": -2.18},
      {"variant": "C18G G84U G117U A121G", "polymerase ribozyme fitness (log ratio)": -2.06},
      {"variant": "C18G U31G A52G G80C U101C U127G", "polymerase ribozyme fitness (log ratio)": "≤ -4.2"},
      {"variant": "A17U C96A", "polymerase ribozyme fitness (log ratio)": -0.735},
      {"variant": "A19C A91U C95A", "polymerase ribozyme fitness (log ratio)": "≤ -4.2"},
      {"variant": "C18U G81A C87U A97U", "polymerase ribozyme fitness (log ratio)": -1.14},
      {"variant": "C18U A20C G34U C76A C79A G88A", "polymerase ribozyme fitness (log ratio)": "≤ -4.2"},
      {"variant": "A17U C51U U55A U78A G81C C123G", "polymerase ribozyme fitness (log ratio)": "≤ -4.2"},
      {"variant": "A19C G126U U145A", "polymerase ribozyme fitness (log ratio)": -0.56},
      {"variant": "C18A A39C G58C G84A U145G", "polymerase ribozyme fitness (log ratio)": -3.36},
      {"variant": "A17U G48A C51G U55G C96G C105U C118U G136U G141U", "polymerase ribozyme fitness (log ratio)": "≤ -4.2"},
      {"variant": "A19C G88C", "polymerase ribozyme fitness (log ratio)": -3.96},
      {"variant": "C18U A30C C32U A39U A49C U53G C93G C96U U127G U139G G140U A147C U151A", "polymerase ribozyme fitness (log ratio)": "≤ -4.2"},
      {"variant": "C18A C85A G112C C116U", "polymerase ribozyme fitness (log ratio)": "≤ -4.2"},
      {"variant": "C18A G58A G86U A119U", "polymerase ribozyme fitness (log ratio)": -2.06},
      {"variant": "C18G G50A C76U A115G A119G", "polymerase ribozyme fitness (log ratio)": -3.18},
      {"variant": "C18U A47C C79G G88A A91C A121U U148G", "polymerase ribozyme fitness (log ratio)": "≤ -4.2"},
      {"variant": "C18G C51U C87G C99A U101C C118U G136A", "polymerase ribozyme fitness (log ratio)": "≤ -4.2"},
      {"variant": "A17U G80C C93A U101G", "polymerase ribozyme fitness (log ratio)": "≤ -4.2"},
      {"variant": "C18G C35A C76U G83C G84U G88A G141U", "polymerase ribozyme fitness (log ratio)": "≤ -4.2"},
      {"variant": "A19C A21U U101A", "polymerase ribozyme fitness (log ratio)": 0.427},
      {"variant": "C18U A52G G83C U146G", "polymerase ribozyme fitness (log ratio)": -2.39},
      {"variant": "C18U C57A A115C G143U U148A", "polymerase ribozyme fitness (log ratio)": "≤ -4.2"},
      {"variant": "C18G C36A C96U A138U", "polymerase ribozyme fitness (log ratio)": -4.03},
      {"variant": "C18G A49C C57G C87A G128U U146G", "polymerase ribozyme fitness (log ratio)": "≤ -4.2"},
      {"variant": "C18G G25C U33C C108G", "polymerase ribozyme fitness (log ratio)": -3.95},
      {"variant": "C18A C27A A40U C87U C118U", "polymerase ribozyme fitness (log ratio)": -4.17},
      {"variant": "C18U G50U C96G U146C", "polymerase ribozyme fitness (log ratio)": -0.747},
      {"variant": "A19C C125U", "polymerase ribozyme fitness (log ratio)": 0.16},
      {"variant": "C18A A19C A40C C85U", "polymerase ribozyme fitness (log ratio)": 0.244},
      {"variant": "C18G A21U A29C A37U C57U C95U U127G U148G", "polymerase ribozyme fitness (log ratio)": -3.75},
      {"variant": "C18U G86U", "polymerase ribozyme fitness (log ratio)": -2.18},
      {"variant": "C18A A21C A37C G81A C87G", "polymerase ribozyme fitness (log ratio)": "≤ -4.2"},
      {"variant": "C18U U56A U90G C99U A120C C132U U134C", "polymerase ribozyme fitness (log ratio)": "≤ -4.2"},
      {"variant": "A19C C51A G86C", "polymerase ribozyme fitness (log ratio)": -3.75},
      {"variant": "C18U A21U G42A G58C C95U C116U U145C", "polymerase ribozyme fitness (log ratio)": "≤ -4.2"},
      {"variant": "C18G U55A", "polymerase ribozyme fitness (log ratio)": -0.923},
      {"variant": "A17U C69U G84C A97G", "polymerase ribozyme fitness (log ratio)": "≤ -4.2"},
      {"variant": "C18G C36A C95A C96A", "polymerase ribozyme fitness (log ratio)": "≤ -4.2"},
      {"variant": "A17U G46U G84A C105U", "polymerase ribozyme fitness (log ratio)": -0.266},
      {"variant": "A19C C36U G70A G80U C105U G152U", "polymerase ribozyme fitness (log ratio)": -3.99},
      {"variant": "C18G G50U G88A", "polymerase ribozyme fitness (log ratio)": -4.08},
      {"variant": "A19C A28U C75A C85U G92U", "polymerase ribozyme fitness (log ratio)": "≤ -4.2"},
      {"variant": "C18U G65U A73G C85U G141C", "polymerase ribozyme fitness (log ratio)": "≤ -4.2"},
      {"variant": "C18U U31G A37C C54U A91C U134C U146C", "polymerase ribozyme fitness (log ratio)": "≤ -4.2"},
      {"variant": "A19C G59A U144C", "polymerase ribozyme fitness (log ratio)": 1.14},
      {"variant": "C18U G58C C85U C87U", "polymerase ribozyme fitness (log ratio)": -1.92},
      {"variant": "C18G C35A G46C G58C C95G A113U", "polymerase ribozyme fitness (log ratio)": "≤ -4.2"},
      {"variant": "A19C A21C C76U C87A A110G A120G", "polymerase ribozyme fitness (log ratio)": "≤ -4.2"},
      {"variant": "C18G A21C A52G G84U G133C U134C", "polymerase ribozyme fitness (log ratio)": -4.07},
      {"variant": "C18G A21C A49C C93A", "polymerase ribozyme fitness (log ratio)": "≤ -4.2"},
      {"variant": "A19C A47C C54A U56A C87A G100C G136A", "polymerase ribozyme fitness (log ratio)": "≤ -4.2"},
      {"variant": "A17U C93G U102A A107C G143A", "polymerase ribozyme fitness (log ratio)": "≤ -4.2"},
      {"variant": "C18G A29U U31G U44C A49U C76U A98G C118A", "polymerase ribozyme fitness (log ratio)": "≤ -4.2"},
      {"variant": "A19C C27A A39C C79U C93A U102G G117C", "polymerase ribozyme fitness (log ratio)": -4.01},
      {"variant": "C18A U55G C85A C118U", "polymerase ribozyme fitness (log ratio)": -2.09},
      {"variant": "C18G A23C G34A A66U G84U U135A", "polymerase ribozyme fitness (log ratio)": "≤ -4.2"},
      {"variant": "A17U C51U G83C A91U U139A G140A G141A U148C", "polymerase ribozyme fitness (log ratio)": "≤ -4.2"},
      {"variant": "A17U C54A A89C C99A G136A", "polymerase ribozyme fitness (log ratio)": -4.03},
      {"variant": "A17U C87U U90C C99G", "polymerase ribozyme fitness (log ratio)": -3.69},
      {"variant": "C18U A19G G94A", "polymerase ribozyme fitness (log ratio)": -2.01},
      {"variant": "C18U C85A U144G", "polymerase ribozyme fitness (log ratio)": 0.299},
      {"variant": "A19C U53A", "polymerase ribozyme fitness (log ratio)": -1.57},
      {"variant": "A19C C32U C69A U77C C103A G143A U145A", "polymerase ribozyme fitness (log ratio)": "≤ -4.2"},
      {"variant": "C18G A52G C87U", "polymerase ribozyme fitness (log ratio)": -1.15},
      {"variant": "C18G G86A C87A A91C A120C", "polymerase ribozyme fitness (log ratio)": "≤ -4.2"},
      {"variant": "A17U G81C U102G U130G G141A", "polymerase ribozyme fitness (log ratio)": "≤ -4.2"},
      {"variant": "A17U C72U C99U", "polymerase ribozyme fitness (log ratio)": -1.38},
      {"variant": "C18U G25C A26C C32G G50U G58C C75U A91G C114A", "polymerase ribozyme fitness (log ratio)": "≤ -4.2"},
      {"variant": "C18G C116U", "polymerase ribozyme fitness (log ratio)": -0.663},
      {"variant": "C18G G92C C129U A150U", "polymerase ribozyme fitness (log ratio)": -3.54},
      {"variant": "C18U A19U A24G G74U C79U", "polymerase ribozyme fitness (log ratio)": "≤ -4.2"},
      {"variant": "C18G C57G G80U C87A U127C G128C", "polymerase ribozyme fitness (log ratio)": "≤ -4.2"},
      {"variant": "A19C A30U G50A A73C G80U G86A C118A U145G", "polymerase ribozyme fitness (log ratio)": "≤ -4.2"},
      {"variant": "A17U U53G C57U G59C G117U", "polymerase ribozyme fitness (log ratio)": -0.451},
      {"variant": "C18U C54G G59A C93A G136U", "polymerase ribozyme fitness (log ratio)": "≤ -4.2"},
      {"variant": "C18U C108U", "polymerase ribozyme fitness (log ratio)": -3.57},
      {"variant": "C18A U56A G92U C105U C114A U144G", "polymerase ribozyme fitness (log ratio)": -3.79}
    ]}
  ]
}
